In PMC9482650, “Quantitative fragmentomics allow affinity mapping of interactomes” (Nature Communications, 2022) one finds pKd data, which are given here for 4 molecules.

Assay in all cases: holdup assay
What all share (parameters): key: below the threshold = too weak to quantify, mostly under pKd 3.1 to 4
Conditions in all cases: plain residues with an end cap or a label only (N-terminal biotin on a linker: ado-ado)

For experiment [1], the target named is T1, MPDZ_5, O75970.
T1 sequence (O75970 695-796, limits assumed, looked up): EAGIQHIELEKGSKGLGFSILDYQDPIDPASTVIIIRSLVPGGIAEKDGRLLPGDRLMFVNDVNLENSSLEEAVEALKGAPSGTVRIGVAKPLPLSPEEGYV

Experiment [2] deals with MAGI1_1, Q96QZ7.
Experiment [3] addresses GOPC, Q9HD26.
Experiment [4] concerns the target T2, SNTG1, Q9NSN8.
T2 sequence (Q9NSN8 52-150, limits assumed, looked up): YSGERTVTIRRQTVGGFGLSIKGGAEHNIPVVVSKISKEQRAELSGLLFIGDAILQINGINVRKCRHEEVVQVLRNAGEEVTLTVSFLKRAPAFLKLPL

The target in experiment [5] is T3, NHERF3_1, Q5T2W1.
T3 sequence (Q5T2W1 4-100, limits assumed, looked up): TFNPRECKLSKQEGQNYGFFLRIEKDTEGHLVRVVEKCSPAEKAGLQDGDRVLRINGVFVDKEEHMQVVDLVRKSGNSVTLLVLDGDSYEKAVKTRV

The target of experiment [6] is DLG1_3, Q12959.
For experiment [7], the target named is T4, TJP3_3, O95049.
T4 sequence (O95049 375-456, limits assumed, looked up): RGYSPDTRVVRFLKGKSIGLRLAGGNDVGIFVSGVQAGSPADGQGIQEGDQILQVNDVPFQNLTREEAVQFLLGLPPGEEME

Experiment [8] concerns the target GRIP2_7, Q9C0E4.
The target of experiment [9] is DLG2_3, Q15700.
In experiment [10] the target is GORASP1, Q9BQQ3.
In experiment [11] the target is T5, GRIP1_5, Q9Y3R0.
T5 sequence (Q9Y3R0 568-668, limits assumed, looked up): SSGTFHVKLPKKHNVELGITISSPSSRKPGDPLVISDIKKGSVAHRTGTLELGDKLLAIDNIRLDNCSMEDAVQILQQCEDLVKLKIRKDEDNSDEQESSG

Experiment [12] addresses T6, SNTG2, Q9NY99.
T6 sequence (Q9NY99 68-166, limits assumed, looked up): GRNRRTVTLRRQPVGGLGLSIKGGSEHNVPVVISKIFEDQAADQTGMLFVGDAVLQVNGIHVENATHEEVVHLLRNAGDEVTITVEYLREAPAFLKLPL

Experiment [13] concerns the target Inadl_9, Q8NI35.
In experiment [14] the target is PARD3_3, Q8TEW0.
Experiment [15] deals with T7, APBA2_1, Q99767.
T7 sequence (Q99767 563-664, limits assumed, looked up): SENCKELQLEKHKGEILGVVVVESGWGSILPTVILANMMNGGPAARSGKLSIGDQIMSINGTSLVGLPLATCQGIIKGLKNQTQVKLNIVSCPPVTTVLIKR

The target in experiment [16] is GRIP2_6, Q9C0E4.
Experiment [17] has as its target T8, SHANK1, Q9Y566.
T8 sequence (Q9Y566 658-767, limits assumed, looked up): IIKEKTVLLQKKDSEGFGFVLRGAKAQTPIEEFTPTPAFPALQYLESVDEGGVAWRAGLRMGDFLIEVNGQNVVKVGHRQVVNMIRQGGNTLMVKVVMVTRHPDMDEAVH

The target in experiment [18] is T9, GRIP1_2, Q9Y3R0.
T9 sequence (Q9Y3R0 145-248, limits assumed, looked up): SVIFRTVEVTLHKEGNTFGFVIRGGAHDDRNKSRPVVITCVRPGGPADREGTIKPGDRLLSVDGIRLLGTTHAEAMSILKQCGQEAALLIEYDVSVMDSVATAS

Experiment [19] deals with Inadl_8, Q8NI35.
The target of experiment [20] is T10, APBA3_1, O96018.
T10 sequence (O96018 389-490, limits assumed, looked up): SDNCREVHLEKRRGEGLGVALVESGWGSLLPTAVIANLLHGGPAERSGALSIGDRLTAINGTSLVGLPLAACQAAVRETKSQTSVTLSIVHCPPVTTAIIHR

Experiment [21] addresses T11, APBA1_1, Q02410.
T11 sequence (Q02410 651-752, limits assumed, looked up): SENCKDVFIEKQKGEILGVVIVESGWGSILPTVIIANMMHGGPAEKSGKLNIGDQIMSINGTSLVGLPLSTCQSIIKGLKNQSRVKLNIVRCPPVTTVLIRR

Experiment [22] has as its target AHNAK1, Q09666.
Experiment [23] deals with T12, SNTB1, Q13884.
T12 sequence (Q13884 107-205, limits assumed, looked up): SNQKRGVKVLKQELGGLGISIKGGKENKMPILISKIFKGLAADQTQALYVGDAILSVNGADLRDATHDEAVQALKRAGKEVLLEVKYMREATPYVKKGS

In experiment [24] the target is GRID2IP_2, A4D2P6.
Sequence of GRID2IP_2, A4D2P6 (A4D2P6 272-370): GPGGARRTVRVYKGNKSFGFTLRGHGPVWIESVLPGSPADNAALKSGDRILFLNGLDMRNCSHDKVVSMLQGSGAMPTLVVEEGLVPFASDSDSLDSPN

Sequence of MAGI1_1, Q96QZ7 (Q96QZ7 1-106): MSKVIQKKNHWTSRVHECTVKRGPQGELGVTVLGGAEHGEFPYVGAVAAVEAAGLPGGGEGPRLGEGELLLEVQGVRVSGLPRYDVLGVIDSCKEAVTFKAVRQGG
Sequence of AHNAK1, Q09666 (Q09666 4-100): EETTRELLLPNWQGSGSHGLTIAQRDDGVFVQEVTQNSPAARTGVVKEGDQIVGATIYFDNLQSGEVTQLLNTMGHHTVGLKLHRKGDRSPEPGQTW
Sequence of DLG1_3, Q12959 (Q12959 457-571): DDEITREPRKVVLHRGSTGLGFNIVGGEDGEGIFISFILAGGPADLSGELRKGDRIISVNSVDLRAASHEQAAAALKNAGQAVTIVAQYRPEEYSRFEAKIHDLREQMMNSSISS
Sequence of GRIP2_7, Q9C0E4 (Q9C0E4 934-1023): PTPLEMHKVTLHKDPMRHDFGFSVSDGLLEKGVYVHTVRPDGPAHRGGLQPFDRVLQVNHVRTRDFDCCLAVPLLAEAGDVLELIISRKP
Sequence of Inadl_8, Q8NI35 (Q8NI35 1425-1530): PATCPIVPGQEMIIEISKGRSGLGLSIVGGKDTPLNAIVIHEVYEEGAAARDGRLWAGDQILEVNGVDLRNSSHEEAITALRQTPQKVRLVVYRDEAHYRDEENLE
Sequence of PARD3_3, Q8TEW0 (Q8TEW0 582-685): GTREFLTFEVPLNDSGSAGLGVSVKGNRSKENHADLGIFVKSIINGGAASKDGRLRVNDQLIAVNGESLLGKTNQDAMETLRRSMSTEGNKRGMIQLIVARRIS
Sequence of GRIP2_6, Q9C0E4 (Q9C0E4 648-740): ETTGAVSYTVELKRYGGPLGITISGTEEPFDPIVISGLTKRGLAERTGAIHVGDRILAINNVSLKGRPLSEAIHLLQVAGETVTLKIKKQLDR
Sequence of GORASP1, Q9BQQ3 (Q9BQQ3 1-208): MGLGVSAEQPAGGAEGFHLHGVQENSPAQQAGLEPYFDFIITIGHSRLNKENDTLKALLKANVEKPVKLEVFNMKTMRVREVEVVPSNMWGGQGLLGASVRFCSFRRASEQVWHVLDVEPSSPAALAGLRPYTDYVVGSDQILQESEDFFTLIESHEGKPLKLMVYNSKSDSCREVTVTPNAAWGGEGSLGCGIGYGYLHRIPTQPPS
Sequence of Inadl_9, Q8NI35 (Q8NI35 1530-1615): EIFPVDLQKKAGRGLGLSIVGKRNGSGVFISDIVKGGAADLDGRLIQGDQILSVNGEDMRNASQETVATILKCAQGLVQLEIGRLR

For the molecule PDSNPEESSV [SEMA4C, Q9C0C4], the pKd result in experiment [1] was “below the threshold”; in experiment [2], 3.57; in experiment [3], 3.67; in experiment [4] it was 4.65; in experiment [5], 3.56; in experiment [6], 3.65. Moreover, the negative logarithm of the Kd (pKd) entry in experiment [7] was “below the threshold”; in experiment [8], “below the threshold”; in [9], “below the threshold”; in experiment [10], “below the threshold”; in [11] it was “below the threshold”; in [12], 4.04. In addition, the pKd in experiment [13] was 3.57; in experiment [14], “below the threshold”; in experiment [15], “below the threshold”; in experiment [16] it was “below the threshold”; in experiment [17] it was “below the threshold”; in experiment [18] it was “below the threshold”. Further, the negative-log Kd (pKd) in experiment [19] is 3.66; in experiment [20] it was “below the threshold”; in experiment [21], “below the threshold”; in experiment [22], “below the threshold”; in experiment [23], 4.46; in experiment [24] it was 3.9.
EWTDERQSKV [GAB3, Q8WWW8]: the pKd entry in [1] is “below the threshold”; in experiment [2] it was “below the threshold”; in [3], 3.82; in [4], 3.97; in [5] it was 4.36; in experiment [6], 3.76. The negative logarithm of the Kd (pKd) entry is “below the threshold” in experiment [7]; “below the threshold” in [8]; “below the threshold” in experiment [9]; “below the threshold” in experiment [10]; “below the threshold” in experiment [11]; 3.88 in [12]. Moreover, the pKd in experiment [13] is 3.56; in experiment [14], “below the threshold”; in [15], “below the threshold”; in experiment [16], “below the threshold”; in [17] it was 3.88; in experiment [18], “below the threshold”. Besides, the pKd in experiment [19] is 4.02; in experiment [20], “below the threshold”; in experiment [21] it was “below the threshold”; in experiment [22], “below the threshold”; in [23] it was 4.62; in experiment [24] it was 4.07.
NPETRDETQL [KCNT1, Q5JUK3]: the negative-log Kd (pKd) result in [1] is “below the threshold”; in [2], “below the threshold”; in experiment [3], 3.76; in experiment [4], “below the threshold”; in experiment [5], 5.27; in experiment [6], “below the threshold”. Also, the pKd entry in experiment [7] is “below the threshold”; in experiment [8] it was “below the threshold”; in experiment [9], “below the threshold”; in experiment [10] it was “below the threshold”; in [11] it was “below the threshold”; in experiment [12] it was 4.08. Moreover, the pKd result is “below the threshold” in experiment [13]; 3.64 in [14]; “below the threshold” in experiment [15]; “below the threshold” in experiment [16]; 4.14 in experiment [17]; “below the threshold” in [18]. In addition, the pKd entry in experiment [19] is “below the threshold”; in experiment [20], “below the threshold”; in experiment [21], “below the threshold”; in [22], “below the threshold”; in experiment [23], 4.35; in experiment [24], 3.85.
With ASGLDKRDYV [CLDN9, O95484], the pKd entry in experiment [1] is “below the threshold”; in experiment [2], “below the threshold”; in experiment [3] it was “below the threshold”; in experiment [4], “below the threshold”; in experiment [5], 4.46; in experiment [6], “below the threshold”. In addition, the pKd in [7] was 3.65; in experiment [8] it was “below the threshold”; in experiment [9], “below the threshold”; in experiment [10], “below the threshold”; in experiment [11], “below the threshold”; in experiment [12] it was “below the threshold”. The pKd in [13] is 3.51; in [14] it was “below the threshold”; in experiment [15] it was “below the threshold”; in [16], “below the threshold”; in [17] it was “below the threshold”; in experiment [18], “below the threshold”. The negative-log Kd (pKd) in experiment [19] is 3.91; in experiment [20], “below the threshold”; in [21] it was “below the threshold”; in experiment [22], “below the threshold”; in experiment [23] it was “below the threshold”; in [24], “below the threshold”.
